Data from US20110190270A1, “METHODS OF TREATING THROMBOEMBOLIC DISORDERS” (MONASH UNIVERSITY, priority 2008, published 2011).

Tested on: occlusive blood clot in the carotid artery
Assay: carotid artery occlusion model, clot lysis and vascular reperfusion
Format: in vivo, mice
Settings: regimens A-H of FIGS. 8 and 9, blood flow monitored 60 minutes
Experimental: Mice were anaesthetised and minor surgery performed to expose to the carotid artery and jugular vein. A Doppler flow probe was placed around the carotid artery to monitor blood flow through this blood vessel, and a catheter placed in the jugular vein to administer drugs. A blood clot was formed in the carotid artery of the mouse through the delivery of a small electric current (4 mA for 1.25 min^g), resulting in complete blockage of blood flow through the vessel (blood flow=0 mls/min), as measured by the flow probe. After vessel blockade was established, various combinations of t-PA, urokinase, heparin, hirudin, HA1077 and Y27632 were administered, using concentrations and regimens indicated (A-H in FIGS. 8 and 9) and examined for their efficacy to dissolve blood clots and restore blood flow. Blood flow was monitored in mice receiving each drug combination for a further 60 minutes, and blood flow measurements recorded using computer software.

B1: t-PA: thrombolytic agent (protein, UniProt P00750 36-562, looked up)
Tissue-type plasminogen …: SYQVICRDEKTQMIYQQHQSWLRPVLRSNRVEYCWCNSGRAQCHSVPVKSCSEPRCFNGGTCQQALYFSDFVCQCPEGFAGKCCEIDTRATCYEDQGISYRGTWSTAESGAECTNWNSSALAQKPYSGRRPDAIRLGLGNHNYCRNPDRDSKPWCYVFKAGKYSSEFCSTPACSEGNSDCYFGNGSAYRGTHSLTESGASCLPWNSMILIGKVYTAQNPSAQALGLGKHNYCRNPDGDAKPWCHVLKNRRLTWEYCDVPSCSTCGLRQYSQPQFRIKGGLFADIASHPWQAAIFAKHRRSPGERFLCGGILISSCWILSAAHCFQERFPPHHLTVILGRTYRVVPGEEEQKFEVEKYIVHKEFDDDTYDNDIALLQLKSDSSRCAQESSVVRTVCLPPADLQLPDWTECELSGYGKHEALSPFYSERLKEAHVRLYPSSRCTSQHLLNRTVTDNMLCAGDTRSGGPQANLHDACQGDSGGPLVCLNDGRMTLVGIISWGLGCGQKDVPGVYTKVTNYLDWIRDNMRP
clot lysis and re-establishment of blood flow (in words): relatively moderate in its ability to lyse occlusive blood clots
